According to patent US20250011418A1 (ZIELBIO, published 2025):

Legend:
[1] = target: T1, Sec8-His (section 8 (Sec8), an antigenic region of CSP-1, tagged with a polyhistidine (His) tag); experiment: ELISA on Sec8-His
T1 construct: also called Sec8-His antigen
T1 chain: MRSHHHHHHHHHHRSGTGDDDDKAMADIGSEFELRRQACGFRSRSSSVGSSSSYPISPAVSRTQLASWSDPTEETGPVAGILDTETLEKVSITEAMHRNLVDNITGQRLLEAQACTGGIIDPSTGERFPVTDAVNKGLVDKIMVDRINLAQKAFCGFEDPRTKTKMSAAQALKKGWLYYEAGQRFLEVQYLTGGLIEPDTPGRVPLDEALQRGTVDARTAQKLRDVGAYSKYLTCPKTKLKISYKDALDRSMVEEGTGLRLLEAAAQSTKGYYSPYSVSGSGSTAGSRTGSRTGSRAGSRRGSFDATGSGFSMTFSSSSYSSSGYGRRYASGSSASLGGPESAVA
Experimental: (§1) The binding of humanized anti-CSP-1 antibody (Ab51) to an antigenic region of CSP-1 called section 8 (Sec8) was measured using ELISA.

[2] = target: T1, Sec8-His (section 8 (Sec8), an …); experiment: ELISA, absorbance 650 nm against concentration in nM on a log axis
Experimental: as §1

[3] = target: T2, Reb-His (Reb, a sub-fragment of Sec8, tagged with a polyhistidine (His) tag); experiment: ELISA on REB-HIS, absorbance 650 nm; no unit stands beside the number, the concentration axis is in nM
T2 construct: also called Reb-His peptide
T2 chain: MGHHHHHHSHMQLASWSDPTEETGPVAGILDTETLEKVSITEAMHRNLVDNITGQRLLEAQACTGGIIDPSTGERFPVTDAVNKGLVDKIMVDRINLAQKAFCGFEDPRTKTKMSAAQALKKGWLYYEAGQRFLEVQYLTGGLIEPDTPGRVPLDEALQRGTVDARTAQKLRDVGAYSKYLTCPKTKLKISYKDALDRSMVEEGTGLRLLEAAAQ
Experimental: Furthermore, the binding of Ab51 to a sub-fragment of Sec8, called Reb, was measured using ELISA.

B1: humanized anti-CSP-1 antibody, Antibody 51 (Ab51) (antibody, V domains shown)
VH: EVQLVESGGGLVQPGGSLRLSCAASGFTFSRYGMSWVRQAPGKRLEWVATISIGGTYTYYPDSMKGRFTISRDNSKNTLYLQMNSLRAEDTAMYYCARRGYGQYSYYGLDYWGQGTLVTVSS
VL: DIVMTQSALSNPVTLGQSASISCRSSKSLLHSQGITYLYWYLQKPGQSPQLLIYQMSNRASGVPDRFSSSGSGTDFTLKISRVEAEDVGVYYCAQNLELPLTFGQGTKLEIK
notes: also called Antibody Number 51; huZB131
Which results are given for B1?
Kd [1]: 441 pM; EC50 (read off the curve) [2]: ~400 pM; EC50 [3]: 124 pM
